Reference: patent US20040018971A1
Blank lines part the entries; values can stand above or below the binder they belong to.

Key:
[1] = target: HLA-B*0702 (human); assay: inhibition of 125I standard peptide binding to purified HLA; conditions: remark: other sources report otherwise
[2] = target: HLA-A*0101 (human); assay: competition with 125I-labelled probe peptide for purified HLA-A*0101, gel filtration; ratio = IC50 of standard peptide 944.02 / IC50 of test peptide; conditions: remark: other sources report otherwise
[3] = target: HLA-A*0301 (human); assay: competition with 125I-labelled probe peptide on purified HLA-A*0301, gel filtration; ratio to standard peptide 941.12; conditions: remark: other sources report otherwise
[4] = target: HLA-A*1101 (human); assay: competition with 125I-labelled probe peptide on purified HLA-A*1101, relative to standard peptide 940.06; conditions: remark: other sources report otherwise; scale: ratio
[5] = target: HLA-A*0101 (human); assay: competition with 125I-labelled probe peptide for purified HLA-A*0101, gel filtration; conditions: remark: other sources report otherwise; scale: ratio
[6] = target: HLA-A*2401 (purified HLA class I molecule) (human); assay: competition with 125I-labelled probe peptide for purified HLA, gel filtration
[7] = target: HLA-A*0101 (human); assay: competition with a 125I-labelled probe peptide for purified HLA-A*0101, gel filtration; ratio against the A*0101 standard peptide 944.02 [..] (25 nM); conditions: remark: other sources report otherwise
[8] = target: HLA-A*0201 (purified HLA class I molecule) (human); assay: competition with 125I-labelled standard peptide for purified HLA, gel filtration; conditions: remark: other sources report otherwise
[9] = target: T1, HLA-DRB5*0101 (human); assay: competition with 125I-labelled standard peptide, purified HLA-DR, gel filtration; conditions: remark: other sources report otherwise
T1 chain 1: not shown
T1 chain 2: not shown

[10] = target: T2, HLA-DR3 (human); assay: competitive inhibition of 125I-labeled probe peptide binding to purified HLA-DR3; conditions: remark: other sources report otherwise
T2 chain 1: not shown
T2 chain 2: not shown

[11] = target: HLA-A*0301 (purified HLA class I molecule) (human); assay: competition with 125I-labelled probe peptide for purified HLA-A*0301, gel filtration; conditions: remark: other sources report otherwise; scale: ratio

relative binding ratio (ratio to standard peptide) [1]: 0.45
Binder: PPSPREGPLPA [HER2/neu peptide, position 1149, 11 amino acids]

relative binding ratio [2]: 0.04
relative binding ratio (IC50 of standard peptide / IC50 of test peptide) (relative binding ratio) [3]: 0.058
relative binding ratio [4]: 0.0079
relative binding ratio [5]: 0.04
relative binding ratio (IC50 of standard peptide / IC50 of test peptide) [6]: 0.0001
relative binding ratio (IC50 of standard peptide / IC50 of test peptide) [7]: 0.04
Binder: VMAGVGSPY [HER2/neu peptide, position 773, 9 amino acids]

relative binding ratio (IC50 of standard peptide / IC50 of test peptide) [8]: 0.0003
Binder: QLFRNPHQAL [HER2/neu peptide, position 484, 10 amino acids]

IC50 [9]: 1330 nM
IC50 [10]: < 1000 nM
Binder: CWMIDSECRPRFREL [Her2/neu.958]

relative binding ratio [11]: 0.0003
Binder: CMQIAKGMSY [HER2/neu peptide, position 826, 10 amino acids (…)]
